Source: patent US8734776B2 (ZymoGenetics, Inc., priority 2003, dated 2014)
Like-named read-outs stand apart in the source and are kept apart here.

How the values were obtained:
IL-28RA mRNA = test: Semi-quantitative RT-PCR of IL-28RA, IFNAR2 and CRF2-4 mRNA; type: cell-based, human; conditions: HepG2 cells + cytokine
Method: In order to further examine the mRNA distribution for IL-28RA, semi-quantitative RT-PCR was performed using the SDS 7900HT system (Applied Biosystems, CA). One-step RT-PCR was performed using 100 ng total RNA for each sample and gene-specific primers. A standard curve was generated for each primer set using Bjab RNA and all sample values were normalized to HPRT. The normalized values for IFNAR2 and CRF2-4 are also shown.

HCV replicon = conditions: replicon clones; IFNα at 10 IU/ml; cited from earlier work
Human Daudi cells = test: Daudi cell proliferation (Alamar Blue); type: cell-based; conditions: 1000 ng/ml to 0.5 ng/ml; 72 h
Method: Human Daudi cells were suspended in RPMI+10% FBS at 50,000 cells/milliliter and 5000 cells were plated per well in a 96 well plate. […] IL-29-CEE was used at a concentration range of from 1000 ng/ml to 0.5 ng/ml. […] IFN-α2a was used at a concentration range of from 62 ng/ml to 0.03 ng/ml. Cells were incubated for 72 h at 37° C. […] Plates were farther incubated at 37° C., 5% CO2, for 24 hours.

[1] = system: human peripheral blood mononuclear cells; test: Induction of IL-28A, IL-29, IL-28B RNA in PBMCs by poly I:C and viral infection; conditions: poly I:C 100 μg/ml, 15 h
[2] = system: human Daudi B lymphoid cells; test: Induction of interferon-stimulated genes in Daudi cells (RT-PCR); type: cell-based; conditions: 72 hours, conditioned medium from Sf9 cells
Text: Interaction of type 1 interferons with their specific receptor leads to induction of a number of genes responsible for their antiviral/antiproliferative activity. These include 2′-5′ oligoadenylate synthetase (2-OAS), double-stranded RNA dependent Pkr kinase (Pkr), phospholipid scramblase, and intercellular adhesion molecule-1 (ICAM-1). Induction of genes with as yet unknown function, such as a 56 kDa interferon stimulated gene product (ISG-56k), also occurs. […] Conditioned medium from Sf9 cells infected with wild-type baculovirus was used as a negative control. Following treatment cells were collected and lysed for isolation of total RNA. One microgram of total RNA was converted to cDNA using reverse transcriptase and used as a template for polymerase chain reaction using oligonucleotide primers specific for the human interferon-stimulated genes described above. Oligonucleotide primers for human […] (G3PDH) were used as a non-interferon stimulated gene control.

rhino virus [3] = type: cell-based
[4] = system: encephelomyocarditis virus; test: Antiviral assay: cytopathic effect in HeLa cells; type: cell-based, human
adenovirus [5] = type: cell-based; conditions: A549 cells
vaccinia virus [6] = type: cell-based; conditions: Vero cells
pichinde virus [7] = type: cell-based
vaccinia virus [8] = type: cell-based; conditions: Vero cells; remark: listed apart in the source
[9] = system: venezuelan equine encephalitis virus; type: cell-based; conditions: Vero cells
[10] = system: respiratory syncytial virus; type: cell-based; conditions: MA-104 cells
HHV-8 = HHV-8 replication in BCBL-1 cells (TaqMan PCR)
dengue virus [11] = type: cell-based; conditions: Vero cells
coxsackie virus [12] = type: cell-based; conditions: Coxsackie B4 virus, KB cells
[13] = system: respiratory syncytial virus; type: cell-based; conditions: MA-104 cells; remark: listed apart in the source
polio virus [14] = type: cell-based; conditions: Vero cells
[15] = system: encephelomyocarditis virus; test: Antiviral assay: cytopathic effect in L929 cells; type: cell-based, mouse
west nile virus [16] = type: cell-based; conditions: Vero cells
dengue virus [17] = type: cell-based; conditions: Vero cells; remark: listed apart in the source
OAS = OAS activity in serum and plasma of mice (RIA); conditions: C57BL/6 mice; i.v; 10 μg-250 μg
[18] = system: ISG gene expression (OAS, Pkr, Mx1); test: ISG gene induction in liver, spleen and blood of injected mice; type: in vivo, mouse; conditions: C57BL/6 mice; i.p or i.v; 10 μg-250 μg
Method: In addition, E. coli derived IL-29 was also tested in in vivo assays as described above using MetIL-29C172S-PEG and MetIL-29-PEG. At various time points and at different doses, ISG gene induction was measured in the blood, spleen and livers of the mice.
Mice were sacrificed at various time points (1 hr-48 hr). Spleens and livers were isolated from mice, and RNA was isolated. RNA was also isolated from the blood cells. The cells were pelleted and RNA isolated from pellets using RNAEasy®-kit (Qiagen). RNA was treated with DNase (Amicon) to rid RNA of any contaminating DNA. cDNA was generated using Perkin-Elmer RT mix (Perkin-Elmer). ISG gene induction was measured by real-time PCR using primers and probes specific for mouse OAS, Pkr and M×1. To obtain quantitative data, HPRT real-time PCR was duplexed with ISG PCR. A standard curve was calculated using known amounts of IFN-stimulated mouse PBLs. All data are shown as expression relative to internal HPRT expression.
Results shown are fold expression relative to HPRT gene expression. […] The data shown is the average expression from 5 different animals/group.
Data shown is fold expression over HPRT expression from livers of mice. Similar data was obtained from blood and spleens of mice.

parainfluenza virus [19] = type: cell-based; conditions: MA-104 cells
west nile virus [20] = type: cell-based; conditions: Vero cells; remark: listed apart in the source
influenza virus [21] = type: cell-based; conditions: Influenza (type A [H3N2])
rhino virus [22] = type: cell-based; remark: listed apart in the source
BVDV = BVDV CPE inhibition assay in MDBK cells; type: cell-based; conditions: MDBK bovine kidney cells
Method: IFNα and RIBAVIRIN® were used as positive controls. Test sample were added at the time of viral infection.

[23] = system: venezuelan equine encephalitis virus; type: cell-based; conditions: Vero cells; remark: listed apart in the source
pichinde virus [24] = type: cell-based; remark: listed apart in the source
adenovirus [25] = type: cell-based; conditions: A549 cells; remark: listed apart in the source
polio virus [26] = type: cell-based; conditions: Vero cells; remark: listed apart in the source
coxsackie virus [27] = type: cell-based; conditions: Coxsackie B4 virus, KB cells; remark: listed apart in the source
influenza virus [28] = type: cell-based; conditions: Influenza (type A [H3N2]); remark: listed apart in the source
parainfluenza virus [29] = type: cell-based; conditions: MA-104 cells; remark: listed apart in the source
[30] = Maden-Darby Canine Kidney cells

Molecule: IFNα [reference compound]
- CRF2-4 mRNA normalized to HPRT (IL-28RA mRNA): 3.05
- IFNAR2 mRNA normalized to HPRT (IL-28RA mRNA): 3.00
- IL-28RA mRNA normalized to HPRT (IL-28RA mRNA): 2.61
- reduction of the amount of HCV RNA compared to untreated control cell lines (HCV replicon): 85%

Molecule: IL-29-CEE: IL-29 conjugated with glu tag
- effect on proliferation of Daudi cells (Human Daudi cells): no significant effect

Molecule: polyinosinic acid-polycytidylic acid [poly I:C]
- amount of IL-28A, IL-29, IL-28B RNA [1]: increased

B1: IL-28A: human IL-28A, previously designated zcyto20, SEQ ID NO:2 (protein, listed as Homo sapiens)
chain: MKLDMTGDCTPVLVLMAAVLTVTGAVPVARLHGALPDARGCHIAQFKSLSPQELQAFKRAKDALEESLLLKDCRCHSRLFPRTWDLRQLQVRERPMALEAELALTLKVLEATADTDPALVDVLDQPLHTLHHILSQFRACIQPQPTAGPRTRGRLHHWLYRLQEAPKKESPGCLEASVTFNLFRLLTRDLNCVASGDLCV
modifications: SIGNAL (1)...(25)
- induction of ICAM-1 [2]: No induction
- induction of ISG-56k, Pkr, 2-5 OAS and phospholipid scramblase [2]: clear induction
- EC50 NR (rhino virus [3]; Rhino 2, KB cells): >10 µg/mL
- IC50 NR (rhino virus [3]; Rhino 2, KB cells): >10 µg/mL
- EC50 NR (rhino virus [3]; Rhino 9, HeLa cells): 1.726 µg/mL
- IC50 NR (rhino virus [3]; Rhino 9, HeLa cells): >10 µg/mL
- Percentage Cytopathic Effect ([4]; relative CM concentration .008X): 10%
- Percentage Cytopathic Effect ([4]; relative CM concentration .0156X): 2.5%
- Percentage Cytopathic Effect ([4]; relative CM concentration .0325X): 5%
- Percentage Cytopathic Effect ([4]; relative CM concentration .0625X): 2.5%
- Percentage Cytopathic Effect ([4]; relative CM concentration .125X): 0%
- Percentage Cytopathic Effect ([4]; relative CM concentration .25X): 0%
- Percentage Cytopathic Effect ([4]; relative CM concentration .5X): 0%
- EC50 NR (adenovirus [5]): >10 µg/mL
- IC50 NR (adenovirus [5]): >10 µg/mL
- EC50 Visual (vaccinia virus [6]): >10 µg/mL
- IC50 Visual (vaccinia virus [6]): >10 µg/mL
- EC50 Visual (pichinde virus [7]): >10 µg/mL
- IC50 Visual (pichinde virus [7]): >10 µg/mL
- EC50 NR (vaccinia virus [8]): >10 µg/mL
- IC50 NR (vaccinia virus [8]): >10 µg/mL
- EC50 NR [9]: 0.035 µg/mL
- IC50 NR [9]: >10 µg/mL
- EC50 Visual [10]: >10 µg/mL
- IC50 Visual [10]: >10 µg/mL
- TI (TC50/IC50) (HHV-8): > 10
- IC50 HHV-8 viral replication (HHV-8; extracellular HHV-8 DNA): 1 µg/mL
- EC50 Visual (dengue virus [11]): 0.01 µg/mL
- IC50 Visual (dengue virus [11]): >10 µg/mL
- EC50 Visual (coxsackie virus [12]): >10 µg/mL
- IC50 Visual (coxsackie virus [12]): >10 µg/mL
- EC50 NR [13]: >10 µg/mL
- IC50 NR [13]: >10 µg/mL
- EC50 Visual (polio virus [14]): >10 µg/mL
- IC50 Visual (polio virus [14]): >10 µg/mL
- Percentage Cytopathic Effect ([15]; relative CM conc. .008X): 87%
- Percentage Cytopathic Effect ([15]; relative CM conc. .0156X): 87%
- Percentage Cytopathic Effect ([15]; relative CM conc. .0325X): 87%
- Percentage Cytopathic Effect ([15]; relative CM conc. .0625X): 87%
- Percentage Cytopathic Effect ([15]; relative CM conc. .125X): 87%
- Percentage Cytopathic Effect ([15]; relative CM conc. .25X): 87%
- Percentage Cytopathic Effect ([15]; relative CM conc. .5X): 87%
- EC50 NR (west nile virus [16]): 0.1 ng/mL
- IC50 NR (west nile virus [16]): >10 µg/mL
- EC50 NR (dengue virus [17]): 0.1 µg/mL
- IC50 NR (dengue virus [17]): >10 µg/mL
- OAS activity in the serum and plasma of mice (OAS): induced OAS activity
- ISG gene expression (OAS, Pkr, Mx1) in the livers, spleen and blood of mice [18]: did not induce ISG gene expression
- TC50 (BCBL-1 cells): > 10 µg/mL
- EC50 NR (parainfluenza virus [19]): >10 µg/mL
- IC50 NR (parainfluenza virus [19]): >10 µg/mL
- EC50 Visual (west nile virus [20]): 0.01 ng/mL
- IC50 Visual (west nile virus [20]): >10 µg/mL
- EC50 NR (influenza virus [21]; [30]): >10 µg/mL
- IC50 NR (influenza virus [21]; [30]): >10 µg/mL
- EC50 NR (influenza virus [21]; Vero cells): 0.25 µg/mL
- IC50 NR (influenza virus [21]; Vero cells): >10 µg/mL
- EC50 Visual (rhino virus [22]; Rhino 2, KB cells): >10 µg/mL
- IC50 Visual (rhino virus [22]; Rhino 2, KB cells): >10 µg/mL
- EC50 Visual (rhino virus [22]; Rhino 9, HeLa cells): >10 µg/mL
- IC50 Visual (rhino virus [22]; Rhino 9, HeLa cells): >10 µg/mL
- IC50 inhibition of cell death induced by BVDV (BVDV): 0.02 µg/mL
- EC50 Visual [23]: 0.01 µg/mL
- IC50 Visual [23]: >10 µg/mL
- EC50 NR (pichinde virus [24]): >10 µg/mL
- IC50 NR (pichinde virus [24]): >10 µg/mL
- EC50 Visual (adenovirus [25]): >10 µg/mL
- IC50 Visual (adenovirus [25]): >10 µg/mL
- EC50 NR (polio virus [26]): >1.672 µg/mL
- IC50 NR (polio virus [26]): >10 µg/mL
- EC50 NR (coxsackie virus [27]): >10 µg/mL
- IC50 NR (coxsackie virus [27]): >10 µg/mL
- EC50 Visual (influenza virus [28]; [30]): >10 µg/mL
- IC50 Visual (influenza virus [28]; [30]): >10 µg/mL
- EC50 Visual (influenza virus [28]; Vero cells): 0.1 µg/mL
- IC50 Visual (influenza virus [28]; Vero cells): >10 µg/mL
- EC50 Visual (parainfluenza virus [29]): >10 µg/mL
- IC50 Visual (parainfluenza virus [29]): >10 µg/mL
